Experimental data taken from PMC11125477 (PLOS ONE, 2024).
One block for each binder: values may come before it.

Molecular target: T1, MAMDC4 (UniProt Q63191 22-1216)
T1 construct: HEK293 cells also hold endogenous (human) MAMDC4, which the anti-MAMDC4 antibody may precipitate as well; also called Endotubin; AEGP; source: HEK293, transfected (overexpressed), in lysate
Assay: co-IP; HEK293 cells overexpressing MAMDC4, control or 50% Wnt3a conditioned media for 6hrs; NP-40 lysis buffer; lysates precipitated with anti-MAMDC4 (hybridoma supernatant) or control IgG on Protein G Dynabeads overnight at 4°C; immunoblot; input 1/50th of lysate
Conditions: partners not purified

T1 sequence (Q63191 22-1216): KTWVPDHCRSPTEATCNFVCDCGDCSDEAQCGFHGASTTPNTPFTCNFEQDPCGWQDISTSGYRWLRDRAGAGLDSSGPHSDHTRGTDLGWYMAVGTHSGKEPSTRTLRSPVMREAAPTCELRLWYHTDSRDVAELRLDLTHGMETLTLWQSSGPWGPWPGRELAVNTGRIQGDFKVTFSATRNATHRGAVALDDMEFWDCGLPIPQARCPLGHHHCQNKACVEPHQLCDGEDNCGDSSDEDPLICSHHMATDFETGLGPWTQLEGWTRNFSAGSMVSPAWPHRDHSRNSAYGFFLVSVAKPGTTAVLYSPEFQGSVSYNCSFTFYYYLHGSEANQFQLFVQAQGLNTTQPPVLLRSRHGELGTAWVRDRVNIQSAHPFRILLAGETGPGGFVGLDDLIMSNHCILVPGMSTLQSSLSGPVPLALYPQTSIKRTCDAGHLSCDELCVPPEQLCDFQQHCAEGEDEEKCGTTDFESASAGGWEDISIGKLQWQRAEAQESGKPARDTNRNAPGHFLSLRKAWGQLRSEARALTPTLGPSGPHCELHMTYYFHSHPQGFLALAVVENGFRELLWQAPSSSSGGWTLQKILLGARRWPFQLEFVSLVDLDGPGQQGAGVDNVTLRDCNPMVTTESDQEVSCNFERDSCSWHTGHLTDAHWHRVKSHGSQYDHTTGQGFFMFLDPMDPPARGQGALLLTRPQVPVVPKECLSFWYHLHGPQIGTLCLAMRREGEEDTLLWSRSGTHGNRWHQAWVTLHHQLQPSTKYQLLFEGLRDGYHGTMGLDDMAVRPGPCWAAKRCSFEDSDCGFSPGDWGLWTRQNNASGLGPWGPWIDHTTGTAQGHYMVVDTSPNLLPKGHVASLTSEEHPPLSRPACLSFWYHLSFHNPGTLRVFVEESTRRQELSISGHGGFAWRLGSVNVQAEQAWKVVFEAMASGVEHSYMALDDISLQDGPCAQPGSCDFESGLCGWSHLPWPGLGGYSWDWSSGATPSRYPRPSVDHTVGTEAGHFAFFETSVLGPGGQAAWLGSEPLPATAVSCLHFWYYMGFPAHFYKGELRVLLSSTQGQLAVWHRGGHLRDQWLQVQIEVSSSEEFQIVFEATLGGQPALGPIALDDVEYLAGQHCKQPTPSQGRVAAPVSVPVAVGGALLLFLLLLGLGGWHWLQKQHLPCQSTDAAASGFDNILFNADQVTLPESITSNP

- ratio of signal from immunoprecipitation relative to input: ~1 ratio IP to input
B1: LRP6 (receptor, human (endogenous in HEK293), UniProt O75581 20-1613, looked up)
chain: APLLLYANRRDLRLVDATNGKENATIVVGGLEDAAAVDFVFSHGLIYWSDVSEEAIKRTEFNKTESVQNVVVSGLLSPDGLACDWLGEKLYWTDSETNRIEVSNLDGSLRKVLFWQELDQPRAIALDPSSGFMYWTDWGEVPKIERAGMDGSSRFIIINSEIYWPNGLTLDYEEQKLYWADAKLNFIHKSNLDGTNRQAVVKGSLPHPFALTLFEDILYWTDWSTHSILACNKYTGEGLREIHSDIFSPMDIHAFSQQRQPNATNPCGIDNGGCSHLCLMSPVKPFYQCACPTGVKLLENGKTCKDGATELLLLARRTDLRRISLDTPDFTDIVLQLEDIRHAIAIDYDPVEGYIYWTDDEVRAIRRSFIDGSGSQFVVTAQIAHPDGIAVDWVARNLYWTDTGTDRIEVTRLNGTMRKILISEDLEEPRAIVLDPMVGYMYWTDWGEIPKIERAALDGSDRVVLVNTSLGWPNGLALDYDEGKIYWGDAKTDKIEVMNTDGTGRRVLVEDKIPHIFGFTLLGDYVYWTDWQRRSIERVHKRSAEREVIIDQLPDLMGLKATNVHRVIGSNPCAEENGGCSHLCLYRPQGLRCACPIGFELISDMKTCIVPEAFLLFSRRADIRRISLETNNNNVAIPLTGVKEASALDFDVTDNRIYWTDISLKTISRAFMNGSALEHVVEFGLDYPEGMAVDWLGKNLYWADTGTNRIEVSKLDGQHRQVLVWKDLDSPRALALDPAEGFMYWTEWGGKPKIDRAAMDGSERTTLVPNVGRANGLTIDYAKRRLYWTDLDTNLIESSNMLGLNREVIADDLPHPFGLTQYQDYIYWTDWSRRSIERANKTSGQNRTIIQGHLDYVMDILVFHSSRQSGWNECASSNGHCSHLCLAVPVGGFVCGCPAHYSLNADNRTCSAPTTFLLFSQKSAINRMVIDEQQSPDIILPIHSLRNVRAIDYDPLDKQLYWIDSRQNMIRKAQEDGSQGFTVVVSSVPSQNLEIQPYDLSIDIYSRYIYWTCEATNVINVTRLDGRSVGVVLKGEQDRPRAVVVNPEKGYMYFTNLQERSPKIERAALDGTEREVLFFSGLSKPIALALDSRLGKLFWADSDLRRIESSDLSGANRIVLEDSNILQPVGLTVFENWLYWIDKQQQMIEKIDMTGREGRTKVQARIAQLSDIHAVKELNLQEYRQHPCAQDNGGCSHICLVKGDGTTRCSCPMHLVLLQDELSCGEPPTCSPQQFTCFTGEIDCIPVAWRCDGFTECEDHSDELNCPVCSESQFQCASGQCIDGALRCNGDANCQDKSDEKNCEVLCLIDQFRCANGQCIGKHKKCDHNVDCSDKSDELDCYPTEEPAPQATNTVGSVIGVIVTIFVSGTVYFICQRMLCPRMKGDGETMTNDYVVHGPASVPLGYVPHPSSLSGSLPGMSRGKSMISSLSIMGGSSGPPYDRAHVTGASSSSSSSTKGTYFPAILNPPPSPATERSHYTMEFGYSSNSPSTHRSYSYRPYSYRHFAPPTTPCSTDVCDSDYAPSRRMTSVATAKGYTSDLNYDSEPVPPPPTPRSQYLSAEENYESCPPSPYTERSYSHHLYPPPPSPCTDSS
notes: LRP6, endogenous in HEK293 cells, detected with rabbit anti-LRP6 (CST 2560); also called total LRP6; source: endogenous, HEK293 lysate

- ratio of signal from immunoprecipitation relative to input: ~1 ratio IP to input
B2: phospho-LRP6 (Ser 1490) (receptor, human (endogenous in HEK293), UniProt O75581 20-1613, looked up)
chain: B1 chain
modifications: phosphoserine at 1490
notes: LRP6 phosphorylated at Ser 1490, endogenous in HEK293 cells, detected with rabbit anti-phospho-LRP6 (Ser 1490) (CST 2568); also called p-LRP6; source: endogenous, HEK293 lysate
